{
  "source": "patent US20240161865A1",
  "about": "“METHODS AND PROTEINS FOR TARGETING MAIN PROTEASE OF CORONAVIRUS” (priority 2022, published 2024)",
  "format": "physicochemical",
  "details": "0.5 mg/mL protein, 25 mM HEPES pH 7.5, 1 mM TCEP, scan 15 to 65° C. at 60° C./hour",
  "data": [
    {"substance": "WT Mpro: wild-type SARS-CoV-2 main protease (nsp5), recombinant from E. coli", "values": [
      {"measurement": "temperature associated with the DSC thermogram peak", "result": 57.2, "unit": "°C"}
    ]}
  ]
}
